The results in this text go back to patent US20230285585A1, “TREATMENT OF PULMONARY HYPERTENSION” (PHILOGEN S.P.A., priority 2020, published 2023).

Entries after “also recorded” stand apart in the source; their conditions may differ.

Data set [1] concerns Monocrotaline (MCT) induced pulmonary hypertension (PH) in C57BL/6 mice. Put plainly: Echocardiographic assessment in MCT induced PH mouse model (Example 4). In kind it is in vivo. Conditions: in contrast to KSF containing control immunocytokines. How it is done: To induce Pulmonary Hypertension (PH), C57BL/6 mice (bodyweight: 25-30 g) were used. The animals were obtained from ZET facility (Zentrale Experimentelle Tierhaltung) of the University Hospital Jena (UKJ, Jena, Germany). Prior to PH induction, mice were allowed to acclimatize for at least 7 days with ad libitum access to food and water as well as controlled light/dark cycles. […]
Echocardiographic assessment was performed on day 28 using the Vevo 770 Rodent-Ultrasound-System, Visual Sonic, Canada, 17 MHz probe RMV176. […] Body temperature and respiratory rate were continuously monitored. All surrogate parameters of right ventricular (RV) morphology and function were assessed, among others, RV basal and medial diameters (in mm), RV length (in mm), tricuspid annular plane systolic excursion (TAPSE, in mm), right atrial area (RA area, in mm^2) or main pulmonary artery diameter (MPA, in mm).
(§1) Statistical analyses were performed using IBM SPSS statistical software, version 25.0 (IBM SPSS Statistics for Windows. Armonk, N.Y., USA). Data are expressed as mean±standard deviation. […]

Data set [2] can be described thus: Storage stability (OD280, SEC, SDS-PAGE). In kind it is physicochemical. How it is done: Storage stability of F8(scFv)-mIL9-F8(scFv) was assessed by size exclusion chromatography profile and analytical SDS-PAGE analysis of the protein after: a) incubation at 37° C. for 3, 5 and 7 days, b) incubation at 4° C. for 7 days and c) a series of 3 freeze and thaw cycles.

The nature of data set [3]: Melting temperature (Protein Thermal Shift kit). In kind it is physicochemical. On the procedure: The melting temperature of the different mIL9 conjugates was determined using a StepOne real-Time PCR system in combination with the Protein Thermal Shift kit.
For data set [4], the system named is Monocrotaline (MCT) induced pulmonary hypertension (PH) in C57BL/6 mice. The data set can be described thus: Right heart catheterization in MCT induced PH mouse model (Example 3). In kind it is in vivo.
Excerpt: (§2) Pulmonary Hypertension (PH) was induced in C57BL/6 mice (bodyweight: 25-30 g). The animals were obtained from ZET facility (Zentale Experimentelle Tierhaltung) of the University Hospital Jena (UKJ, Jena, Germany). Prior to PH induction, mice were allowed to acclimatize for at least 7 days with ad libitum access to food and water as well as controlled light/dark cycles. As shown in the overview of the experimental design and treatment schedule (FIG. 6), the following experimental groups were investigated: • sham induced controls (n=6) • MCT induced PH (n=8) • MCT induced PH+MACI (n=7) • MCT induced PH+F8(scFv)-mIL9-F8(scFv) (also named F8-IL9) (n=6) • MCT induced PH+KSF(scFv)-mIL9-KSF(scFv) (also named KSF-IL9) (n=6)
For PH induction, the Monocrotaline (MCT) method was used.
The sham induced controls were injected with 30 μl NaCl not containing MCT at day 1 (single dose; intraperitoneally, i.p.). […] The other 4 experimental groups were injected with MCT to induce PH (single dose; intraperitoneally, i.p.; 60 mg/kg body weight; volume 30 μl). Animals in the MCT induced PH+MACI group received the drug (Macitentan) from day 14 to day 28 (once daily; per os; 15 mg/kg body weight). […]
as §1

Data set [5] shares this test system. Put plainly: Echocardiographic assessment in MCT induced PH mouse model (Example 3). In kind it is in vivo. Conditions: in contrast to untargeted KSF(scFv)-mIL9-KSF(scFv).
Excerpt: as §2
For PH induction, the Monocrotaline (MCT) method was used. […]
Echocardiographic assessment was performed on day 28 (FIG. 6) using the Vevo 770 Rodent-Ultrasound-System, Visual Sonic, Canada, 17 MHz probe RMV176. […] Body temperature and respiratory rate were continuously monitored. All surrogate parameters of right ventricular (RV) morphology and function were assessed, among others, RV basal and medial diameters (in mm), RV length (in mm), and RV fractional area change (FAC, in %).
as §1

For data set [6] the test system is unchanged. Put plainly: Right heart catheterization in MCT induced PH mouse model (Example 4). In kind it is in vivo. Conditions: in contrast to KSF containing control immunocytokines.
Excerpt: To induce Pulmonary Hypertension (PH), C57BL/6 mice (bodyweight: 25-30 g) were used. The animals were obtained from ZET facility (Zentrale Experimentelle Tierhaltung) of the University Hospital Jena (UKJ, Jena, Germany). Prior to PH induction, mice were allowed to acclimatize for at least 7 days with ad libitum access to food and water as well as controlled light/dark cycles. In this set of experiments, 50 animals were investigated divided into the following 7 experimental groups: • sham induced controls (n=10) • MCT induced PH (n=8) • MCT induced PH+MACI (n=8) • MCT induced PH+F8mIL9F8 in CrAb format (n=6) • MCT induced PH+KSFmIL9KSF in CrAb format (n=6) • MCT induced PH+F8_(IgG-HC4)-mIL9 (n=6) • MCT induced PH+KSF_(IgG-HC4)-mIL9 (n=6)
For PH induction, the Monocrotaline (MCT, Carl Roth, Germany) method was used.
The sham induced controls were injected with 30 μl NaCl not containing MCT at day 1 (single dose; intraperitoneally, i.p.). […] The other 6 experimental groups were injected with MCT (single dose; intraperitoneally, i.p.; 60 mg/kg body weight; volume 30 μl). Animals in the MCT induced PH+MACI group received the drug (Macitentan, Actelion Pharmaceuticals Ltd.) from day 14 to day 28 (once daily; per os; 15 mg/kg body weight).
Animals in the MCT induced PH+F8mIL9F8 in CrAb format group received F8mIL9F8 3 times on days 14, 16 and 18 (intravenously, i.v.; 200 μg/injection; volume 154 μl). Animals in the MCT induced PH+KSFmIL9KSF in CrAb format group received KSFmIL9KSF 3 times on days 14, 16 and 18 (intravenously, i.v.; 198 μg/injection; volume 182 μl).
Animals in the MCT induced PH+F8_(IgG-HC4)-mIL9 group received F8_(IgG-HC4)-mIL9 3 times on days 14, 16 and 18 (intravenously, i.v.; 261 μg/injection; volume 137 μl). Animals in the MCT induced PH+KSF_(IgG-HC4)-mIL9 group received KSF_IgG-HC4mIL9 3 times on days 14, 16 and 18 (intravenously, i.v.; 258 μg/injection; volume 161 μl).
On day 28 after MCT injection, mice of all experimental groups were deeply anesthetized with a single dose of 100 mg/kg body weight ketamine and 10 mg/kg body weight Xylazin in approximately 60 μl each administered i.p.
Right heart catheterization using a 1.4 F micro conductance pressure-volume catheter (Model SPR-839; Millar Instruments Inc; PowerLab system, ADInstruments Ltd., Oxford, UK) was performed via the right vena jugularis interna to measure the systolic right ventricular pressure and thereby verify the success of the experimental setting. Mice were then sacrificed in deep anesthesia and analgesia to carry out cardiac blood collection after thoracotomy and to harvest the organs.
as §1

Data set [7] deals with T1, recombinant fibronectin 11A12 domain (EDA) (Homo sapiens, UniProt P02751).
T1 construct: recombinant fibronectin 11A12 domain
Put plainly: Biacore surface plasmon resonance binding analysis. The settings on record: SPR, BIAcore X100, CM5 chip coated with recombinant fibronectin 11A12 domain. How it is done: Binding affinity was determined by surface plasmon resonance using a BIAcore X100 instrument using a CM5 chip coated with recombinant fibronectin 11A12 domain. Samples were injected as serial-dilution, using a concentration range from […] to 125 nM.
Background: Surface plasmon resonance follows binding to a sensor surface in real time, without labels.

T1 sequence (P02751 1629-1905 limits assumed): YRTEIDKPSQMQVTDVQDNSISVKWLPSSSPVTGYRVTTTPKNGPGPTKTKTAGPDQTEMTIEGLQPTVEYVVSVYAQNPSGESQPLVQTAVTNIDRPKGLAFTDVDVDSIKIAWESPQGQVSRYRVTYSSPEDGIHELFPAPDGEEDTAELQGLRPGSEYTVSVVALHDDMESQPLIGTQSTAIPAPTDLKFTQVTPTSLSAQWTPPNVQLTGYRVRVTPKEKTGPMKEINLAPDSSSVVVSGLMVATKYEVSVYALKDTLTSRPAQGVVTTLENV

B1: F8(scFv)-mIL9-F8(scFv): murine IL9 conjugated at N- and C-terminus to an F8 scFv via 10 amino acid linker, CrAb format; SEQ ID NO: 17 (protein)
chain: EVQLLESGGGLVQPGGSLRLSCAASGFTFSLFTMSWVRQAPGKGLEWVSAISGSGGSTYYADSVKGRFTISRDNSKNTLYLQMNSLRAEDTAVYYCAKSTHLYLFDYWGQGTLVTVSSGGGGSGGGGSGGGGEIVLTQSPGTLSLSPGERATLSCRASQSVSMPFLAWYQQKPGQAPRLLIYGASSRATGIPDRFSGSGSGTDFTLTISRLEPEDFAVYYCQQMRGRPPTFGQGTKVEIKSGGSGSGGGGQRCSTTWGIRDTNYLIENLKDDPPSKCSCSGNVTSCLCLSVPTDDCTTPCYREGLLQLTNATQKSRLLPVFHRVKRIVEVLKNITCPSFSCEKPCNQTMAGNTLSFLKSLLGTFQKTEMQRQKSRPSGGSGSGGGGEVQLLESGGGLVQPGGSLRLSCAASGFTFSLFTMSWVRQAPGKGLEWVSAISGSGGSTYYADSVKGRFTISRDNSKNTLYLQMNSLRAEDTAVYYCAKSTHLYLFDYWGQGTLVTVSSGGGGSGGGGSGGGGEIVLTQSPGTLSLSPGERATLSCRASQSVSMPFLAWYQQKPGQAPRLLIYGASSRATGIPDRFSGSGSGTDFTLTISRLEPEDFAVYYCQQMRGRPPTFGQGTKVEIK
modifications: F8(scFv)-mIL9-F8(scFv) (“CrAb” format)
For the molecule B1, the “echocardiographic signs of right ventricular load and dysfunction (result in words)” value was “significantly improved a variety” in data set [1] and “significantly improved the majority” in data set [5]. Also, in data set [2] (3 cycles of freeze and thawing), the “stability to freeze and thawing (protein concentration, SEC profile, SDS-PAGE)” value is given as “no loss of concentration, no changes in the size exclusion profile or SDS-PAGE analysis; also recorded: no loss of concentration”. Besides, the “thermal stability over time (protein concentration, SEC profile, SDS-PAGE)” value in data set [2] (incubated at 4° for up to 7 days) is reported as “no loss of concentration, no changes in the size exclusion profile or SDS-PAGE analysis; also recorded: no loss of concentration”; in data set [2] (incubated at 37° C. for up to 7 days), “no loss of concentration, no changes in the size exclusion profile or SDS-PAGE analysis; also recorded: no loss of concentration”. Moreover, the “increase in melting temperature compared with diabody formats F8(db)-mIL9 and mIL9-F8(db)” value in data set [3] was around 3 °C. Moreover, the “treatment effects relative to MACI (result in words)” value in data set [4] (MACI 15 mg/kg per os once daily day 14 to 28) was “at least comparable”. Moreover, the “pressure values in the right ventricle (result in words)” value in data set [4] (in contrast to untargeted KSF(scFv)-mIL9-KSF(scFv), 200 μg/injection i.v. days 14, 16, 18) is given as “significantly reduce”. Also, the “pressure values in the right ventricle, RVPsys (result in words)” value in data set [6] is recorded as “significantly reduced”. The “apparent KD” value in data set [7] is “in the nM range”.
